Tests used:
[1] = system: hematopoietic stem and progenitor cells; test: In vivo HSC depletion by anti-CD117 mAb in combination with AZA; parameters: species or system C57BL/6 mice; conditions: 1 μg exogenous murine SCF for 5 days in mice treated with ACK2 and AZA, day 11
Description: A. Schematic of treatment protocol. C57BL/6 mice were injected retroorbital with single dose of ACK2 500 μg 5 days prior start treatment with AZA. AZA was administered in dose 5 mg/kg/d daily for 5 days. Mice were sacrificed 6, 10, 17 and 20 days after first dose of AZA and bone marrow (BM) and spleens were harvested and analyzed for HSC-depletion and depletion of mature myeloid and lymphoid cells. […] Magnification 100 μm. C. Absolute numbers of the different HSPC compartments in the BM and spleen of untreated controls and mice treated with ACK2 in combination with AZA at 6, 10, 17 20 days after start AZA as measured by flow cytometry; Lin^−Sca1^+c-Kit^+(LSK)CD150+CD48^− (LT-HSC), LSKCD150^−CD48^− (ST-HSC), LSKCD150^+CD48^+ (MPP2), LSKCD150^−CD48^+ (MPP3/4). Data represent mean±SD (n=3-4 per group per timepoint). Statistics were calculated Mann-Whitney test (*P<0.05). […] ACK2 and 2B8 were administered as a single dose of 500 μg retroorbital 5 days prior treatment with AZA; AZA was given at dose 5 mg/kg/d for 5 days. BM was analyzed at d6, d10 and d20 after the start of AZA. […] Statistics were calculated by Kruskal-Wallis test (*P<0.05, ***P<0.001). […] Mice were sacrificed at day 11 after first dose of AZA and BM and spleen were analyzed for HSC-depletion. […] Statistics were calculated by Mann-Whitney test (*P<0.05, ns=non-significant). […]

human MDS HSC = conditions: MDS-xenografted mice; cited from earlier work
CD117 = target: T1, CD117 (Homo sapiens, UniProt P10721); conditions: children with SCID, single agent conditioning prior to allogeneic HCT; cited from earlier work
T1 construct: JSP191, used as single agent conditioning prior to allogeneic HCT in children with SCID; endogenous in cells; host or cells: hematopoietic stem and progenitor cells of human SCID patients (in vivo, clinical trial)

HSC = conditions: non-human primates; cited from earlier work

T1 sequence (P10721 26-976): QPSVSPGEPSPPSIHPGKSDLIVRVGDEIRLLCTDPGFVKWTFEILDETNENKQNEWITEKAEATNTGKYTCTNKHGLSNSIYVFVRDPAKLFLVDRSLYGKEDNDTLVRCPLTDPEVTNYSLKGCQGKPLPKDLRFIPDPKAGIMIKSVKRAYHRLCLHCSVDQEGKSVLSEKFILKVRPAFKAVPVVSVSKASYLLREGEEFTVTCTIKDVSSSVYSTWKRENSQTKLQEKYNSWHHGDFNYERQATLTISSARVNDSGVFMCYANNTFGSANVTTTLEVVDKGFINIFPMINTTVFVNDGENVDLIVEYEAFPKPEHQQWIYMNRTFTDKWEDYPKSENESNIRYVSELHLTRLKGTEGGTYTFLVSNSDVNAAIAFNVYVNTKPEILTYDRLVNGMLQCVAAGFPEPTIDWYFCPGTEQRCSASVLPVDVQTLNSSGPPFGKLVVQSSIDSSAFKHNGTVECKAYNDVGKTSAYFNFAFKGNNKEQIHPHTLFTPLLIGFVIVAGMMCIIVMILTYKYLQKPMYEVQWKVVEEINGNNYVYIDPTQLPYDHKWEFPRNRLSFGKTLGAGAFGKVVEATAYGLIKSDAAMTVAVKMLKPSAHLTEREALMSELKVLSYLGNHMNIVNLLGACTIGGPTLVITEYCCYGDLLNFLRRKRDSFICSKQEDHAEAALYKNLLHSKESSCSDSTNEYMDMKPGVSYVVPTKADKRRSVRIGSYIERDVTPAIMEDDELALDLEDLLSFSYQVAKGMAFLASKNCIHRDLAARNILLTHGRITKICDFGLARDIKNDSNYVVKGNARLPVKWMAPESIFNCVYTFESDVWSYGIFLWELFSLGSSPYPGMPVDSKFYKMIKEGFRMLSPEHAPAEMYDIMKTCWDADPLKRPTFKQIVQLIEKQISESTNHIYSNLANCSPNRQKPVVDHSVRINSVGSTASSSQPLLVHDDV

Molecule	ST-HSC, MPP2 and MPP3/4 in the bone marrow [1]	recovery of LT-HSC in the bone marrow [1]	depletion of human MDS HSC (human MDS HSC)	long-term HSC engraftment (CD117)	tolerability (CD117)	HSC elimination and off-target toxicity (HSC)
SCF: recombinant murine stem cell factor (PeproTech), ligand of CD117 (protein, UniProt P20826 26-190, looked up) Soluble KIT ligand: KEICGNPVTDNVKDITKLVANLPNDYMITLNYVAGMDVLPSHCWLRDMVIQLSLSLTTLLDKFSNISEGLSNYSIIDKLGKIVDDLVLCMEENAPKNIKESPKRPETRSFTPEEFFSIFNRSIDAFKDFMVASDTSDCVLSSTLGPEKDSRVSVTKPFMLPPVAA	no changes	faster recovery of LT-HSC				
JSP191: anti-human CD117 mAb, humanized form of SR1, aglycosylated IgG1 (antibody, chains of the INN, looked up, V domains shown) VH: QVQLVQSGAEVKKPGASVKVSCKASGYTFTSYNMHWVRQAPGQGLEWMGVIYSGNGDTSYNQKFKGRVTITADKSTSTAYMELSSLRSEDTAVYYCARERDTRFGNWGQGTLVTVSS VL: DIVMTQSPDSLAVSLGERATINCRASESVDIYGNSFMHWYQQKPGQPPKLLIYLASNLESGVPDRFSGSGSGTDFTLTISSLQAEDVAVYYCQQNNEDPYTFGGGTKVEIK			depletes human MDS HSC	all showed evidence of long-term HSC engraftment	tolerated JSP191 well, without safety issues	can eliminate HSC with little to no off-target toxicity

Source: US12564609B2, “Hematopoietic stem cell engraftment with a combination of agents” (The Board of Trustees of the Leland Stanford Junior …, priority 2020, dated 2026)
